Results from publication PMC7068118 (Human Molecular Genetics, 2020).

B1: Mcp1-3HA (natural protein, S. cerevisiae, UniProt Q12106 1-302, looked up)
chain: MIKLHEVPPEPVDPASLPHDVNAHSPEGDGNPDKRKKIFGIPYPFSRSSCRRFLWNCQKISVLPMALYFPLHAANTLITPAVSPDSAPDDVLMMVREILPSITTKLLVAGITLHVSAGVLLRIVNNWNKPRRNRHRHLKISAEQDLSQDSIGLTGGISGYLFGLYKTFRIPPQVISGYILVPVLIYHLLIMKWVPNSISTEVDFASIKQLLSSKNRWWKWLGGLVPLAILLESGVYHIGSGLCRYFGVRKMTSRKKWSTAINLLTLVGFVSLIRLMKEDSTKLGPNQFESIFKKIRLLLHVN
B2: Spo71-3HA (natural protein)
chain: MDSIVNVVEDDVKYAQRVTSFSSPQNANVKVFTIPRHSFTAFRLSYVSPTELSACSQVTLLGGIPKQWYADQNNQVWKLLTKISLRKVRKQSDMLRRYGYGTIYKKRVGKIPTALYLRKHFTWSYEDNTSIHNGHRLKEAEMEMKRTRSSPVQKSEYKLSLPRRCRSSSDQNFMRQELLKEKKSELSRNNSLPLIDTAQAVDIHPVLHEEDQENTNKRNKSLLSNLKRKDLGESKSISRKDYSHFDRIPSPSSARSVGETDFNYNREPSEDTLRYPDSIIEVTNRTSPAPNSILSRSGQFVNSNDLSDGFSTSNTINNVGLNANEKIFFNALQSMEKENLMLWKTSQKYGTYLDERRKSADAFQKRERGSCVDIGKLHSSHLPFINILPPWPTELTEEERIIHDRLASKHSHHIRKHVHNARNKTSCKIKDSVGTFLGMTNSLTNKATVKKRTGQILKKEKMLVMVKEAIQNKVPLPNFSENECFDTRVSERWKEYIVIARSTGRFDPPILLQFYRHRHIPEIEDISSIATKYHRNPLDFFLSRNCIVKFYSSLDKTISIQKPDKRLGGFIDESIEKKDELKHYSPIKIFILRCSSIRSSGRWYKFLLESLDRQLFTPAINLKIPLTEISIKINLNEIIFQKLIDLGKQEKDRLKICFLQRGYKIFQHPILRYFTVAILEKLKLAHYDYLIRKWDTENPVLGCALKRYDRLEWIPCDEDSLVTGIFAFCQSHLIQYRPIANRLRETKSLEGKCLKEPTPIEGFLIRLTDKYGSARTNFGKYSISTAYFFTCENLLFSMKAYRANPPLPIDSMIDDTSTEIEKEEIWKQWKKIPEVYEQQPYPLDTNDHIEWMNCQTTQSEYDSRDFYAFHCFHRRIDQILKTDNVIDLTEVKDIYQGTRTDYEADKIKYGVYKEASEIFWHRNYEIDDVSRSVINIETSNGLLLKLLATSATVAEEWVIKLKQMISYWKNKQREDTERLLKIRRSNAGLLMLNGEEETKIGENTLRWIVEHGRADEQTFNANGISLSRPLIQKGPLYQKPHKHSVFSKYYVVLISGFIVLFHCFHRSTTGFAKEVLEYAHYVTIPIDDCYLYSGTTTELDLLQRDRTFDEINYGSHALPRVYGDGWRSVEDESSRCFTLWFGTRRALSSNRLQKKGNEKQYTQDYGRQDNNIDPPSAPEADLNNSNVPSNTDKIHFTKKLGVSGKSMVFMARSRQERDLWVMSIYYELERLRRTASTSNSRNQTM
B3: Ypt35-3HA (natural protein)
chain: MSDKISFLPPEPIQLLDEDSTEPELDIDSQQENEGPISASNSNDSTSHSNDCGATITRTRPRRSSSINANFSFQKAHVSDCTIVNGDHGTKFAVWRITVFLEPNLKAFAAKRESYKIQTYKRYSDFVRLRENLLTRIKTAKPEKLNCLQIPHLPPSVQWYSSWKYQEVNLNKDWLAKRQRGLEYFLNHIILNSSLVEMTKDILIQFLEPSKRVA

Key:
Assay in all cases: co-IP
[1] = target: Vps13^N4S (Vps13^GFP N2216S, models VPS13B N2993S) (S. cerevisiae, UniProt Q07878 1-3144, Vps13^N4S (N2216))
[2] = target: Vps13^N4 (Vps13^GFP, conserved asparagine of VAB repeat 4 to alanine) (S. cerevisiae, UniProt Q07878 1-3144, Vps13^N4A (N2216))
[3] = target: Vps13^N1 (Vps13^GFP, conserved asparagine of VAB repeat 1 to alanine) (S. cerevisiae) (UniProt Q07878)
[4] = target: Vps13^N3 (Vps13^GFP, conserved asparagine of VAB repeat 3 to alanine) (S. cerevisiae) (UniProt Q07878)
[5] = target: Vps13^N2,3,4S (Vps13^GFP, conserved asparagines of VAB repeats 2, 3 and 4 to serine) (S. cerevisiae) (UniProt Q07878)

Binder | pull-down relative to WT [1] [%] | recovery relative to WT [2] [%] | recovery relative to WT [3] [%] | recovery relative to WT [4] [%] | pull-down relative to WT [3] [%] | recovery relative to WT [5] [%]
B1 | 77 | 42 | 24 | 67 | – | –
B2 | – | – | – | – | 41 | 42
B3 | – | – | 24 | – | – | –
